Results taken from PMC2191977 (The Journal of Experimental Medicine, 1995).

Target: B7 QDP/LEK (mouse) (UniProt Q00609)
Assay: flow cytometry on cells

CTLA4Ig, sequence (P09793 36-161): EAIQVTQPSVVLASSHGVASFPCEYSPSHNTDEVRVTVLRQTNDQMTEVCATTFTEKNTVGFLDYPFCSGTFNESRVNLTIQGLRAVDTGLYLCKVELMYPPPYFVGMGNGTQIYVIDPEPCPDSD

- % wild-type B7 binding (normalised to anti-B7 mAb 10.16A.1): 15%
- MF (mean fluorescence, control subtracted): 42 MF
Substance: CTLA4Ig (from UniProt P09793 36-161) (Fc fusion)
